Assay results as given in patent US20190112367A1 (IMMUNOQURE, published 2019).

Legend:
[1] = molecular target: T1, IL-32alpha (ImmunoTools) (human, UniProt P24001-4 1-131, limits assumed); assay: ELISA, antigen coated on plate
T1 construct: Bought from ImmunoTools; also called IL-32α
T1 sequence (looked up): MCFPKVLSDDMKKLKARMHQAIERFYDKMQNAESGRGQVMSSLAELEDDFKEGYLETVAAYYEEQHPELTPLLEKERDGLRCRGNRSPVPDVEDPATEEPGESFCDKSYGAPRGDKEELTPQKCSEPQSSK
Description: (§1) EC50 binding of exemplary anti-IL-32 antibodies of the present invention to IL-32γ (R&D) or IL-32α (ImmunoTools), was determined by ELISA. Serial dilutions of MABs (from 100,000 ng/ml down to 1.69 ng/ml) were incubated for 2 hours with antigen-coated plates (coating overnight at 1 μg/ml in PBS, followed by wash out and blocking with 2% BSA in PBS). The plates were subsequently washed and binding of MABs was detected with anti-human HRP-conjugated Fc-gamma-specific secondary antibody (Jackson ImmunoResearch, Europe Ltd., Cambridgeshire, UK). Concentrations of MAB resulting in half of maximal binding to respective antigens (EC50, ng/ml) were calculated using Prism 4 GraphPad software on sigmoidal dose-response curves (variable slope, 4 parameters) obtained by plotting the log of the concentration versus OD 450 nm measurements; for the results see FIG. 3 and Table 4 below.

[2] = molecular target: T1, IL-32alpha (ImmunoTools); assay: ELISA, antigen coated at 1 µg/ml, serial dilutions of MAB
Description: as §1

B1: anti-IL-32 antibody 14B3 (IgG1, lambda) (antibody)
heavy: not shown
light: SYELTQPPSVSVSPGQTARITCSGDALPETYVYWYQQKSGQAPVKLIYEDSERPSGIPERFSGSSSGTLATLTISGAHVEDEADYYCYSTDSSGIGVFGGGTKLTVLSQPKAAPSVTLFPPSSEELQANKATLVCLISDFYPGAVTVAWKADSSPVKAGVETTTPSKQSNNKYAASSYLSLTPEQWKSHKSYSCQVTHEGSTVEKTVAPTECS
notes: also called MAB 14B3
B1: no binding (tested: 100 ug/ml (highest concentration tested)) [1].

B2: anti-IL-32 antibody 19A1 (IgG1, lambda) (antibody)
heavy: not shown
light: B1 light
notes: also called MAB 19A1
B2: no binding (tested: 100 ug/ml (highest concentration tested)) [1].

B3: anti-IL-32 antibody 2C2 (IgG3, lambda) (antibody, V domains shown)
VH: QLRVQESGPGLLKPAETLSLTCSVSSGSVSNSRYYWAWIRQSPGKGLEWIGSMYYRGRSYYNPSLKSRLTISIDTSKNQFSLKLTSLTAADTAVYYCAAAVYHDLDYWGQGTLVTVSS
VL: QSVLTQPPSVSAAPGQKVTISCSGSGSSIGNNYVSWYQQLPGAAPKLLIYDNTKRPSGIPDRFSGSKSGTSATLAITGLQPGDAADYYCGTWDSSFSVFWVFGGGTKLTVLS
notes: Human patient-derived antibody, recombinantly expressed; the chains are put together from these; also called MAB 2C2; exemplary anti-IL-32 2C2 antibody
B3 was tested, and the EC50 [2] was greater than 30 µg/mL.

B4: anti-IL-32 antibody 26A6 (IgG1, lambda) (antibody, V domains shown)
VH: QVQLVESGGGVVQPGRSLRLSCVASGLTFRTYGMHWVRQAPGNGLEWVAIIWHDGNKKYFADSVKGRFTISRDNSKNSLYLQMNSLRVEDTAVYYCAREMNGIDVWGQGTTVTVSS
VL: SYELTQPPSVSVSPGQTARITCSGDALPETYVYWYQQKSGQAPVKLIYEDSERPSGIPERFSGSSSGTLATLTISGAHVEDEADYYCYSTDSSGIGVFGGGTKVTVLS
notes: IgG1, lambda; also called MAB 26A6
B4: no binding (tested: 100 ug/ml (highest concentration tested)) [1].
